According to article PMC11032339:

Assays:
[1] = target: soluble full-length recombinant ADAMTS13 (UniProt Q76LX8); assay: SPR; Biacore T200; ADAMTS13, MDTCS (or fibrinogen) immobilised on CM5 by amine coupling (500-1000 RU); analytes 0-7 µM (or 0-3.5 µM) with 5 mM AEBSF and 10 µM VFKck; 20 mM HEPES-NaOH, 150 mM NaCl, pH 7.4, 0.01% Tween-20, 10 mM CaCl2, 10 µM ZnCl2; 20 µl/min, 25 °C; equilibrium responses fitted to a one-site binding model
fibrinogen = assay: as above
[2] = target: soluble full-length recombinant ADAMTS13 (UniProt Q76LX8)

Sequence of UniProt Q76LX8 (Q76LX8 75-1427): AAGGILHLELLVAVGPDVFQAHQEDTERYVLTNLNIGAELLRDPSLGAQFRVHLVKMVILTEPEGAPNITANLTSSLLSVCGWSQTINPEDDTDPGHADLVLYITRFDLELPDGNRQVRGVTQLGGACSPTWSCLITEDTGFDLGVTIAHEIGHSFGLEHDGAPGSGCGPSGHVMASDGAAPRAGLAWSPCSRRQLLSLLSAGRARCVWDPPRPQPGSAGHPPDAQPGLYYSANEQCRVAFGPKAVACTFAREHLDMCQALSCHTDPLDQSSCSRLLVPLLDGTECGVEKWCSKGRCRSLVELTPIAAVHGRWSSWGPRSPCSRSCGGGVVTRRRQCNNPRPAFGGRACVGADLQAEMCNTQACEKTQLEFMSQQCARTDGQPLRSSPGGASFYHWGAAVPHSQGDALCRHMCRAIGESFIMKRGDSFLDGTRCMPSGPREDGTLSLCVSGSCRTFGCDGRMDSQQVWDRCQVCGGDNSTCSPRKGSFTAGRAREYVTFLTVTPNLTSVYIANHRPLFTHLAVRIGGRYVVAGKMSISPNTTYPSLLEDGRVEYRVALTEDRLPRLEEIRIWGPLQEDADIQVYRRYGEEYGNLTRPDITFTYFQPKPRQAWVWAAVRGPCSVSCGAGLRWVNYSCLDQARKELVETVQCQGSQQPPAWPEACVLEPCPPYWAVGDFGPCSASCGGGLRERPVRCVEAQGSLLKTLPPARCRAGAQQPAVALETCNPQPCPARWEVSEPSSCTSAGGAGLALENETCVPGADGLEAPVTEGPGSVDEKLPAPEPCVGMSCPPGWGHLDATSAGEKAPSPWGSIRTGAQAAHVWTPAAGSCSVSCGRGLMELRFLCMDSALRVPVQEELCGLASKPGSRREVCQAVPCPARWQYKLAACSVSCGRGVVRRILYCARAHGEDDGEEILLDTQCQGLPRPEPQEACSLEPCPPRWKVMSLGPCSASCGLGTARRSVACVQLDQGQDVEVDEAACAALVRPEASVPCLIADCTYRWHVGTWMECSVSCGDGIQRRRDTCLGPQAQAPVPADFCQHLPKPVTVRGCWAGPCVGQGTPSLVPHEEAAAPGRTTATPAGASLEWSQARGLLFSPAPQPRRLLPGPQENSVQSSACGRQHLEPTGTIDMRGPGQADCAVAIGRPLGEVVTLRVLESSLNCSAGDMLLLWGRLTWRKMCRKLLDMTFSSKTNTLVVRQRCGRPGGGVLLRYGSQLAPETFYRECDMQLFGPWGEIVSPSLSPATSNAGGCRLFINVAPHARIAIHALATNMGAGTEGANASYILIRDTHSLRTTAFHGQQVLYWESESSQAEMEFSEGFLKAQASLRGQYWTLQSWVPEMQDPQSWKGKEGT

With “17-kringle form of apolipoprotein(a) (natural protein)” as the substance, how does the Kd [1] read?
Its Kd is 4 µM.

What about the Kd (fibrinogen) of the same substance?
Its Kd is 2.4 µM.

With VFK-plasmin (enzyme) as the substance, how does the rate of degradation of 100 nM ADAMTS13 by 10 nM active plasmin (Prolytix, not VFK-blocked) at 37 °C in the presence of 5 mM TXA; Western blot densitometry of the intact ADAMTS13 band [2] read?
Its rate of degradation of 100 nM ADAMTS13 by 10 nM active plasmin (Prolytix, not VFK-blocked) at 37 °C in the presence of 5 mM TXA; Western blot densitometry of the intact ADAMTS13 band is 0.05 nM/min.

What about the rate of degradation of 100 nM ADAMTS13 by 10 nM active plasmin (Prolytix, not VFK-blocked) at 37 °C without TXA; Western blot densitometry of the intact ADAMTS13 band [2] of the same substance?
Its rate of degradation of 100 nM ADAMTS13 by 10 nM active plasmin (Prolytix, not VFK-blocked) at 37 °C without TXA; Western blot densitometry of the intact ADAMTS13 band is 1.6 nM/min.

And the Kd [1]?
The Kd was 1.8 µM.

Which Kd [1] does the source give for Glu-plasminogen (natural protein) here?
Its Kd is 2.8 µM.

Lys-plasminogen (natural protein) was tested. Which Kd [1] did it give?
Its Kd is 1 µM.

For Mini-plasminogen (domain or fragment), which Kd [1] is on record?
The Kd was 1.5 µM.
